The results in this text go back to paper PMC7717453, “A study of Rose Bengal against a 2-keto-3-deoxy-D-manno-octulosonate cytidylyltransferase as an antibiotic candidate” (Journal of Enzyme Inhibition and Medicinal Chemistry, 2020).

Data set [1] relates to Nc1ccn([C@@H]2O[C@H](COP(=O)(O)OP(=O)(O)OP(=O)(O)O)[C@@H](O)[C@H]2O)c(=O)n1. In words: purified protein.
Data set [2] deals with O=C(O)C(=O)C[C@@H](O)[C@@H](O)[C@H](O)[C@H](O)CO. As to the kind of experiment: purified protein.
Data set [3] has as its target T1, BtKdsB (2-keto-3-deoxy-D-manno-octulosonate cytidylyltransferase) (Burkholderia thailandensis, UniProt Q2T0K3).
T1 construct: gene kdsB; native KdsB with N-terminal tag MHHHHHH GGGGG
As to the kind of experiment: biochemical.

Data set [4] addresses T2, PaKdsB (2-keto-3-deoxy-D-manno-octulosonate cytidylyltransferase) (Pseudomonas aeruginosa, UniProt Q9HZM5).
T2 construct: gene kdsB; native KdsB with N-terminal tag MHHHHHH EFSQQDSD
T2 sequence (Q9HZM5 1-254): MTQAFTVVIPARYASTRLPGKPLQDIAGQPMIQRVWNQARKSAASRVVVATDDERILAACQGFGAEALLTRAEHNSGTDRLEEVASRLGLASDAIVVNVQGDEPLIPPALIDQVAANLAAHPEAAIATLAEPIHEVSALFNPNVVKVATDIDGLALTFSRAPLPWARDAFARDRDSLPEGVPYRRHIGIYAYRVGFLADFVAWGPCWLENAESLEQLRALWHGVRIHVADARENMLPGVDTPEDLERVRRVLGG
In words: malachite green enzyme assay (IC50), inhibition kinetics; increased thermostability. The format is biochemical. The source says: malachite green enzyme assay (IC50), inhibition kinetics; increased thermostability on PaKdsB (2-keto-3-deoxy-D-manno-octulosonate cytidylyltransferase) | The IC50 value determined from the dose-dependent inhibitory curve of Rose Bengal

Substrate in data set [5]: Nc1ccn([C@@H]2O[C@H](COP(=O)(O)OP(=O)(O)OP(=O)(O)O)[C@@H](O)[C@H]2O)c(=O)n1
In words: steady-state kinetics (Km), malachite green assay. The class given is biochemical, Pseudomonas aeruginosa. The settings on record: KDO ([…]), Mg2+ ([…] MgCl2) nucleotide binding site.

Substrate in data set [6]: O=C(O)C(=O)C[C@@H](O)[C@@H](O)[C@H](O)[C@H](O)CO
As to the kind of experiment: steady-state kinetics (Km), malachite green assay. The class given is biochemical, Pseudomonas aeruginosa. The settings on record: CTP ([…]), Mg2+ ([…] MgCl2) substrate binding site.

T1 sequence (Q2T0K3 whole entry): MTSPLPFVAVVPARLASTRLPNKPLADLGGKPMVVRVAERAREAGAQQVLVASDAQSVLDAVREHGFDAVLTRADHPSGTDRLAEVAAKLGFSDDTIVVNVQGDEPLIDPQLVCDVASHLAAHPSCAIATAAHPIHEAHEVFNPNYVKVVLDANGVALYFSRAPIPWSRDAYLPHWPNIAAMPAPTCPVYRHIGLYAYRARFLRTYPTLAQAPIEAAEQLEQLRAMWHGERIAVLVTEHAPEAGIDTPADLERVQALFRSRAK

The term Km denotes the concentration of substrate that gives half-maximal velocity. By kcat is commonly meant the number of substrate molecules converted per active site and unit of time at saturation. In the case of “BtKdsB (2-keto-3-deoxy-D-manno-octulosonate cytidylyltransferase) (Burkholderia thailandensis E264)”, in data set [1], the Km is 123.9 ± 34 µM and the kcat amounted to 0.142 ± 0.0193 s⁻¹. In addition, in data set [2], the Km was 56 ± 11 µM and the kcat came out at 0.116 ± 0.0062 s⁻¹.

For orientation: IC50 means the concentration needed to halve the response being measured. Turning to `O=C1OC2(c3cc(I)c(O)c(I)c3Oc3c2cc(I)c(O)c3I)c2c(Cl)c(Cl)c(Cl)c(Cl)c21` [Rose Bengal], the values for the IC50 in data set [3] and in data set [4] were 7.24 µM and 14.7 µM, respectively.

B1: PaKdsB (2-keto-3-deoxy-D-manno-octulosonate cytidylyltransferase) (Pseudomonas aeruginosa PAO1) (protein)
chain: MTQAFTVVIPARYASTRLPGKPLQDIAGQPMIQRVWNQARKSAASRVVVATDDERILAACQGFGAEALLTRAEHNSGTDRLEEVASRLGLASDAIVVNVQGDEPLIPPALIDQVAANLAAHPEAAIATLAEPIHEVSALFNPNVVKVATDIDGLALTFSRAPLPWARDAFARDRDSLPEGVPYRRHIGIYAYRVGFLADFVAWGPCWLENAESLEQLRALWHGVRIHVADARENMLPGVDTPEDLERVRRVLGG
notes: native KdsB with N-terminal tag MHHHHHH EFSQQDSD
For B1, the Km is 98.3 ± 30 µM in data set [5] and 61 ± 11 µM in data set [6]. Moreover, the kcat in data set [5] is 0.132 ± 0.0184 s⁻¹; in data set [6], 0.0758 ± 0.00383 s⁻¹.
